Biological target: NPY2 receptor on HEK293/hNPY2R cells (human) (UniProt P49146)
Assay: cell-based or functional assay

Sequence of PYY(3-36) wild-type (peptide; modification not given) (chain, as listed by the source): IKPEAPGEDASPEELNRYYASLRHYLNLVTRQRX
Sequence of NPY2 receptor on HEK293/hNPY2R cells (human) (P49146 whole entry): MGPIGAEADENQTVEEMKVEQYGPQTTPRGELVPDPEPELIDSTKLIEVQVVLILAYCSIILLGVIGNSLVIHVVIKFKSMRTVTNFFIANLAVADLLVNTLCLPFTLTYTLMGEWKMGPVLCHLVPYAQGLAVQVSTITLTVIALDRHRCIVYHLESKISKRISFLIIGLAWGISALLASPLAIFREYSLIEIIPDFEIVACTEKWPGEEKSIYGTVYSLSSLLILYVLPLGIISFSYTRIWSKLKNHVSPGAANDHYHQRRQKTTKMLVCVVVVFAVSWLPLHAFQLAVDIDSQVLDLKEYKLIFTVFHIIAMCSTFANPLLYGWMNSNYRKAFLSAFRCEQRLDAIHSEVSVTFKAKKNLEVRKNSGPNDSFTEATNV

Row | EC50 [nM], day 1, cAMP assay (inhibition of Forskolin stimulated cAMP accumulation in HEK293/hNPY2R cells) | EC50 [nM], day2, cAMP assay (inhibition of Forskolin stimulated cAMP accumulation in HEK293/hNPY2R cells) | Substance
1 | 0.09 nM | 0.1 nM | PYY(3-36) wild-type (peptide; modification not given)
2 | 0.14 nM | 0.15 nM | moPYY, Y2receptor specific modified analog of PYY(3-36): Ac-Ile-Lys-Pqa-Arg-His-Tyr-Leu-Asn-Trp-Val-Thr-Arg-Gln-(NMe)-Arg-Tyr-NH2 (peptide)
